A short description of experiment [1]: Enzyme assay in vitro with 4,4'-dihydroxy-3,3'-dimethoxystilbene as substrate, vanillin detected by HPLC. It counts as biochemical. The conditions noted are these: 30° C., 50 mM Tris-HCl pH 8.5, substrate 200 μM. The procedure:
The activity of FfLSD was determined by two substrates, 4,4′-dihydroxy-3,3′-dimethoxystilbene and isoeugenol, respectively. For measuring the activity toward 4,4′-dihydroxy-3,3′-dimethoxystilbene, the activity was assayed at 30° C. in 2.5 ml of 50 mM Tris-HCl buffer (PH 8.5) containing suitable amounts of enzyme solution. The enzyme reaction was started by addition of substrates dissolved in 10 μL of N,N-dimethylformamide (DMF) to a final concentration of 200 μM. The reaction product, vanillin, was detected with HPLC analysis.

The nature of experiment [2]: Enzyme assay in vitro with isoeugenol as substrate, formation of vanillin by HPLC. It counts as biochemical. Conditions: 10 mM isoeugenol, 10 min. As for the experimental part: The activity was also measured with isoeugenol by measuring the formation of vanillin. The reaction mixture contained 10 mM isoeugenol, 100 mM potassium phosphate buffer (pH 7.0), 10% (v/v) ethanol and an appropriate amount of enzyme, in a total volume of 1 ml. The reaction was started, by adding isoeugenol as ethanol solution, carried out at 30° C. for 10 min with reciprocal shaking (160 strokes min^−1) and stopped with 1 ml of methanol. After centrifugation at 21,500, the supernatant was analyzed by HPLC for the determination of isoeugenol, vanillin, vanillyl alcohol. FfLSD enzyme treated in boiling water for 5 minutes was used as the negative control.
Almost all isoeugenol added to the reaction mixture was converted to vanillin (top panel). As expected, no vanillin was produced with the negative control (bottom panel).

B1: FfLSD: putative lignostilbene-α, β-dioxygenase from the fungus Fusarium fujikuroi, 522 amino acids (SEQ ID NO: 2), recombinant, His-tagged (protein, listed as Fusarium fujikuroi)
chain: MSAPEEHHGLKSKWPQAFDLAGSNSPCRIEGEIGDLVVLGEIPPAIDGTFYRVMCDPFVPPHPDNVPLDGDGHVSAFRIYNGRVDMKIKYVETERYKLERKAGKALFGLYRNPFTHHPCVRAAVDSTANTNMVYWADRLLALKESALPYEMHPDTLETLCYDPFGGQVKAKAFTAHPKIDPFSDELVVYGYEAKGLATRDIVIYSLDKNGIKHDEQWIESPWCAPIHDCVITPNFIVLILWPFEASVERMKAGKQHWAWDYSLPATFIVVPRRKTSKIPASWKQGEHRVYHWKNCMNIHAGSAWEEDNGKLYLETSRVHDNAFPFFPPVDGRMPAPDAKADFVRWEIDLNAPSGTQMADPEVILDVPSEFPRIDERFMTKRNEYLFLNVFIPETSQGGTNIFHGLNGLAMHNHSTGETKWFFAGKDSLVQEPIFIPRTADAPEGDGWVIAMLERRVANRSELVVLDTREFEKPVAFIQLPMHLKAQVHGNWIDSRTRASTEAIVRQIGEVKVSARGALEPLA
modifications: His tag
Regarding B1, in experiment [1], the “activity toward 4,4′-dihydroxy-3,3′-dimethoxystilbene” value is “did not show activity”. In addition, the “isoeugenol added to the reaction mixture converted to vanillin” value in experiment [2] (pH 7.0, 30° C., HPLC (FIG. 6)) was “Almost all”. Besides, in experiment [2] (potassium phosphate pH 7.0, 30° C.), the activity toward isoeugenol result is reported as “high activity”.

Values taken from patent US20220112525A1, “BIOSYNTHESIS OF VANILLIN FROM ISOEUGENOL” (Conagen Inc., priority 2019, published 2022).
